Measured values as given in patent US20230322953A1 (HARBOUR BIOMED SHANGHAI, published 2023).
Where a chain is given by its changes, count along the chain named.

B1: PR000260, anti-CD3 monoclonal antibody SP34 (hIgG1 chimeric antibody) (antibody, V domains shown)
VH: EVQLVESGGGLVQPKGSLKLSCAASGFTFNTYAMNWVRQAPGKGLEWVARIRSKYNNYATYYADSVKDRFTISRDDSQSILYLQMNNLKTEDTAMYYCVRHGNFGNSYVSWFAYWGQGTLVTVSA
VL: QAVVTQESALTTSPGETVTLTCRSSTGAVTTSNYANWVQEKPDHLFTGLIGGTNKRAPGVPARFSGSLIGDKAALTITGAQTEDEAIYFCALWYSNLWVFGGGTKLTVLG
B2: PR001992 (bispecific antibody, human IgG1, kappa, L234A L235A)
chain 1: EVQLLESGGGLVQPGGSLRLSCAASGFTFNTYAMNWVRQAPGKGLEWVSRIRSKYNNYATYYADSVKDRFTISRDDSKSTLYLQMNSLRAEDTAVYYCVRHGNFGNSYVSWFAYWGQGTLVTVSSRTVAAPSVFIFPPSDEQLKSGTASVVCLLNNFYPREAKVQWKVDNALQSGNSQESVTEQDSKDSTYSLSSTLTLSKADYEKHKVYACEVTHQGLSSPVTKSFNRGEC
chain 2: QAVVTQEPSLTVSPGGTVTLTCRSSTGAVTTSNYANWVQQKPGQAPRGLIGGTNKRAPWTPARFSGSLLGDKAALTLLGAQPEDEAEYFCALWYSNLWVFGGGTKLTVLSSASTKGPSVFPLAPSSKSTSGGTAALGCLVKDYFPEPVTVSWNSGALTSGVHTFPAVLQSSGLYSLSSVVTVPSSSLGTQTYICNVNHKPSNTKVDKKVEPKSCDKTHTCPPCPAPEAAGGPSVFLFPPKPKDTLMISRTPEVTCVVVDVSHEDPEVKFNWYVDGVEVHNAKTKPREEQYNSTYRVVSVLTVLHQDWLNGKEYKCKVSNKALGAPIEKTISKAKGQPREPQVYTLPPCREEMTKNQVSLWCLVKGFYPSDIAVEWESNGQPENNYKTTPPVLDSDGSFFLYSKLTVDKSRWQQGNVFSCSVMHEALHNHYTQKSLSLSPGK
chain 3: EVQLVETGGGLIQPGGSLRLSCAASGFPVSSNYMSWVRQAPGKGLEWVSVIFSGGRTYYADSVKGRFTISRDNSKNTLYLQMNSLRAEDTAVYYCARRNWIDGRDAFDIWGQGTMVTVSSASEPKSSDKTHTCPPCPAPEAAGGPSVFLFPPKPKDTLMISRTPEVTCVVVDVSHEDPEVKFNWYVDGVEVHNAKTKPREEQYNSTYRVVSVLTVLHQDWLNGKEYKCKVSNKALGAPIEKTISKAKGQPREPQVCTLPPSREEMTKNQVSLSCAVKGFYPSDIAVEWESNGQPENNYKTTPPVLDSDGSFFLVSKLTVDKSRWQQGNVFSCSVMHEALHNHYTQKSLSLSPGK
notes: Structure 12 (Fab(cross VH/VL)-Fc-VH): CD3 Fab from PR000511, BCMA VH from PR000943; IgG1 knob/hole, AAG
B3: PR001994 (bispecific antibody, human IgG1, kappa, L234A L235A)
chain 1: B2 chain 1
chain 2: B2 chain 2
chain 3: EVQLVETGGGLIQPGGSLRLSCAASGFTVSDNYMTWVRQAPGKGLEWVSVIFSGGNTYYADSVKGRFTISRDNAKNTLYLQMNSLRAEDTALYYCARRNYDDTRGTDVFDIWGQGTMVTVSSASEPKSSDKTHTCPPCPAPEAAGGPSVFLFPPKPKDTLMISRTPEVTCVVVDVSHEDPEVKFNWYVDGVEVHNAKTKPREEQYNSTYRVVSVLTVLHQDWLNGKEYKCKVSNKALGAPIEKTISKAKGQPREPQVCTLPPSREEMTKNQVSLSCAVKGFYPSDIAVEWESNGQPENNYKTTPPVLDSDGSFFLVSKLTVDKSRWQQGNVFSCSVMHEALHNHYTQKSLSLSPGK
notes: Structure 12 (Fab(cross VH/VL)-Fc-VH): CD3 Fab from PR000511, BCMA VH from PR001046; IgG1 knob/hole, AAG
B4: PR001993 (bispecific antibody, human IgG1, kappa, L234A L235A)
chain 1: B2 chain 1
chain 2: B2 chain 2
chain 3: B2 chain 3 with P28T, S35T, R56S, N99I, W100A, I101V, D102A, R104H, A106V
notes: Structure 12 (Fab(cross VH/VL)-Fc-VH): CD3 Fab from PR000511, BCMA VH from PR001035; IgG1 knob/hole, AAG
B5: PR002002 (bispecific antibody, IgG1)
chain 1: QAVVTQEPSLTVSPGGTVTLTCRSSTGAVTTSNYANWVQQKPGQAPRGLIGGTNKRAPWTPARFSGSLLGDKAALTLLGAQPEDEAEYFCALWYSNLWVFGGGTKLTVLGGGQSGQGGSGGGGSEVQLVESGGGLVQPGGSLKLSCAASGFTFNTYAMNWVRQASGKGLEWVGRIRSKYNNYATYYADSVKDRFTISRDDSKSTLYLQMNSLKTEDTAVYYCVRHGNFGNSYVSWFAYWGQGTLVTVSSASEPKSSDKTHTCPPCPAPEAAGGPSVFLFPPKPKDTLMISRTPEVTCVVVDVSHEDPEVKFNWYVDGVEVHNAKTKPREEQYNSTYRVVSVLTVLHQDWLNGKEYKCKVSNKALGAPIEKTISKAKGQPREPQVYTLPPCREEMTKNQVSLWCLVKGFYPSDIAVEWESNGQPENNYKTTPPVLDSDGSFFLYSKLTVDKSRWQQGNVFSCSVMHEALHNHYTQKSLSLSPGK
chain 2: B3 chain 3
notes: Structure 20 (scFv(VL-VH)-Fc-VH): CD3 scFv from PR000510, BCMA VH from PR001046; IgG1 knob/hole, AAG
B6: PR002000 (bispecific antibody, IgG1)
chain 1: B5 chain 1
chain 2: B2 chain 3
notes: Structure 20 (scFv(VL-VH)-Fc-VH): CD3 scFv from PR000510, BCMA VH from PR000943; IgG1 knob/hole, AAG
B7: PR001995 (bispecific antibody, IgG1)
chain 1: EVQLLESGGGLVQPGGSLRLSCAASGFTFNTYAMNWVRQAPGKGLEWVSRIRSKYNNYATYYADSVKDRFTISRDDSKSTLYLQMNSLRAEDTAVYYCVRHGNFGNSYVSWFAYWGQGTLVTVSSASTKGPSVFPLAPSSKSTSGGTAALGCLVKDYFPEPVTVSWNSGALTSGVHTFPAVLQSSGLYSLSSVVTVPSSSLGTQTYICNVNHKPSNTKVDKKVEPKSC
chain 2: QAVVTQEPSLTVSPGGTVTLTCRSSTGAVTTSNYANWVQQKPGQAPRGLIGGTNKRAPWTPARFSGSLLGDKAALTLLGAQPEDEAEYFCALWYSNLWVFGGGTKLTVLGQPKAAPSVTLFPPSSEELQANKATLVCLISDFYPGAVTVAWKADSSPVKAGVETTTPSKQSNNKYAASSYLSLTPEQWKSHRSYSCQVTHEGSTVEKTVAPTECSDKTHTCPPCPAPEAAGGPSVFLFPPKPKDTLMISRTPEVTCVVVDVSHEDPEVKFNWYVDGVEVHNAKTKPREEQYNSTYRVVSVLTVLHQDWLNGKEYKCKVSNKALGAPIEKTISKAKGQPREPQVYTLPPCREEMTKNQVSLWCLVKGFYPSDIAVEWESNGQPENNYKTTPPVLDSDGSFFLYSKLTVDKSRWQQGNVFSCSVMHEALHNHYTQKSLSLSPGK
chain 3: EVQLLESGGGLVQPGGSLRLSCAASGFTFSSYAMIWVRQAPGKGLEWVSGISESGGSTYYADSVKGRFTISRDNSKNTLYLQMNSLRAEDTAVYFCVKDLDDILTGYYKDYWGQGTLVTVSSASEPKSSDKTHTCPPCPAPEAAGGPSVFLFPPKPKDTLMISRTPEVTCVVVDVSHEDPEVKFNWYVDGVEVHNAKTKPREEQYNSTYRVVSVLTVLHQDWLNGKEYKCKVSNKALGAPIEKTISKAKGQPREPQVCTLPPSREEMTKNQVSLSCAVKGFYPSDIAVEWESNGQPENNYKTTPPVLDSDGSFFLVSKLTVDKSRWQQGNVFSCSVMHEALHNHYTQKSLSLSPGK
notes: CD3 Fab from PR000511, BCMA VH from PR000940; IgG1 knob/hole, AAG
B8: PR001998 (bispecific antibody, IgG1)
chain 1: B7 chain 1
chain 2: B7 chain 2
chain 3: B3 chain 3
notes: Structure 13 (Fab(cross Fd/LC)-Fc-VH): CD3 Fab from PR000511, BCMA VH from PR001046; IgG1 knob/hole, AAG
B9: PR001996 (bispecific antibody, IgG1)
chain 1: B7 chain 1
chain 2: B7 chain 2
chain 3: B2 chain 3
notes: Structure 13 (Fab(cross Fd/LC)-Fc-VH): CD3 Fab from PR000511, BCMA VH from PR000943; IgG1 knob/hole, AAG
B10: PR001999 (bispecific antibody, IgG1)
chain 1: B5 chain 1
chain 2: B7 chain 3
notes: IgG1 knob/hole, AAG
B11: PR001997 (bispecific antibody, IgG1)
chain 1: B7 chain 1
chain 2: B7 chain 2
chain 3: B2 chain 3 with P28T, S35T, R56S, N99I, W100A, I101V, D102A, R104H, A106V
notes: Structure 13 (Fab(cross Fd/LC)-Fc-VH): CD3 Fab from PR000511, BCMA VH from PR001035; IgG1 knob/hole, AAG

target: T1, human CD3 (TCR/CD3 complex) on human T cells (human, UniProt P07766 23-207); assay: flow cytometry (FACS) on human T cells, Experiment 1
T1 construct: whole, on cells
T1 sequence (P07766 23-207, one chain of several): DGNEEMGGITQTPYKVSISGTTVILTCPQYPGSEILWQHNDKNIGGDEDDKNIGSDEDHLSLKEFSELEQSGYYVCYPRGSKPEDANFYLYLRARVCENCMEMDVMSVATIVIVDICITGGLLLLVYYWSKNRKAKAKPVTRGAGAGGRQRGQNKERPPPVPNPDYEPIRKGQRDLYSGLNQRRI

Maximum MFI [MFI]	Binder
7160	B1
2240	B2
3380	B3
4780	B4

target: T1, human CD3 (TCR/CD3 complex) on human T …; assay: flow cytometry (FACS) on human T cells, Experiment 2
Description: The binding ability of the antibody molecules to human or cynomolgus monkey T cells was tested by flow cytometry FACS. […] The T cell density was adjusted to 1×10⁶ cells/mL. […] The cells were incubated at 4° C. for 1 h away from light. Then, the cells in each well were rinsed twice with 100 μL of pre-cooled PBS, and centrifuged at 500 g at 4° C. for 5 min, and then the supernatant was discarded. […] The cells in each well were rinsed twice with 100 μL of pre-cooled PBS, and centrifuged at 500 g at 4° C. for 5 min, and then the supernatant was discarded. Finally, the cells in each well were resuspended in 200 μL of pre-cooled PBS. Fluorescence signal values were read using a BD FACS CANTOII flow cytometer or an ACEA NovoCyte flow cytometer, and the data were processed and analyzed using FlowJo v10 (FlowJo, LLC) software. The data were processed and analyzed by plotting using GraphPad Prism 8 software, and binding curves of the antibodies to target cells, EC₅₀ values and other parameters were obtained through four-parameter nonlinear fitting.

Maximum MFI [MFI]	Binder
6030	B1
1120	B5
1730	B6
2920	B7
3320	B8
3440	B9
1170	B10
4460	B11
